{"source": "patent US20220380801A1", "about": "“TRIPARTITE SYSTEMS FOR PROTEIN DIMERIZATION AND METHODS OF USE” (priority 2019, published 2022)", "binders": {"B1": {"name": "PRSIM_23 (designed binder)", "chain": "RLDAPSQIEVKDVTDTTALITWVDPRYDDIWWFELTYGIKDVPGDRTTIKLYLNDPYYSIGNLKPDTEYEVSLISYTGDSYSRSGSNPAKITFKTGL"}}, "settings_in_all_cases": "remark: other sources report otherwise", "key": {"[1]": {"target": "T1, HCV NS3/4A PR (S139A):simeprevir complex (Hepatitis C virus subtype 1a)"}, "[2]": {"target": "HCV NS3/4A PR K136H (S139A background), in the presence of simeprevir (Hepatitis C virus subtype 1a)"}, "[3]": {"target": "T1, HCV NS3/4A PR (S139A):simeprevir …", "test": "SPR Biacore 8K, PRSIM immobilised, protease flowed with 10 nM simeprevir"}, "[4]": {"target": "T1, HCV NS3/4A PR (S139A):simeprevir …", "test": "HTRF, with simeprevir"}, "[5]": {"target": "T1, HCV NS3/4A PR (S139A):simeprevir …", "test": "phage ELISA"}, "[6]": {"target": "T1, HCV NS3/4A PR (S139A):simeprevir …", "remark": "listed apart in the source"}, "[7]": {"target": "T1, HCV NS3/4A PR (S139A):simeprevir …", "remark": "listed apart in the source"}, "[8]": {"target": "T1, HCV NS3/4A PR (S139A):simeprevir …", "remark": "listed apart in the source"}, "[9]": {"target": "T1, HCV NS3/4A PR (S139A):simeprevir …", "remark": "listed apart in the source"}}, "note": "Read-outs that look alike come from different tables or passages of the source.", "data": [{"binder": "B1", "values": [{"measurement": "EC50 (read off the curve)", "setting": "[1]", "result": 3, "unit": "nM"}, {"measurement": "EC50 (read off the curve)", "setting": "[2]", "result": 4, "unit": "nM"}, {"measurement": "Kd", "setting": "[3]", "result": 6.3, "unit": "nM"}, {"measurement": "koff", "setting": "[3]", "result": 0.0318, "unit": "s⁻¹"}, {"measurement": "kon", "setting": "[3]", "result": "5.03e+06", "unit": "M⁻¹ s⁻¹"}, {"measurement": "HTRF max. signal (% delta F)", "setting": "[4]", "result": 1570, "unit": "% delta F"}, {"measurement": "Binding fold change [(HCV protease + Simeprevir binding)/HCV protease alone]", "setting": "[5]", "result": 23.8, "unit": "fold"}, {"measurement": "Simeprevir EC50 for induction of heterodimerisation", "setting": "[6]", "result": 4.53, "unit": "nM"}, {"measurement": "Simeprevir EC50 for induction of heterodimerisation", "setting": "[7]", "result": 4.03, "unit": "nM"}, {"measurement": "Kd", "setting": "[8]", "result": 5.4, "unit": "nM"}, {"measurement": "EC50 (read off the curve)", "setting": "[9]", "result": 2, "unit": "nM"}]}]}
